Results from IntAct's records for PubMed 16510448.

B1: DNA polymerase delta subunit 4 (Homo sapiens), Q9HCU8 (parent)
chain: MGRKRLITDSYPVVKRREGPAGHSKGELAPELGEEPQPRDEEEAELELLRQFDLAWQYGPCTGITRLQRWCRAKQMGLEPPPEVWQVLKTHPGDPRFQCSLWHLYPL

Variants of: B1
Conditions: with pcna_human PCNA

effect of a mutation on the interaction | Variant
disrupting interaction | I7A;S10A;Y11A
